According to the array DNA melting data of Ke et al.:

Assay: melting temperature; UV melt of duplexes

Row | Substance | Tm (sodium 0.07 M, strand 2 µM) [°C] | Tm (sodium 0.12 M, strand 2 µM) [°C] | Tm (sodium 0.22 M, strand 2 µM) [°C] | Tm (sodium 0.62 M, strand 2 µM) [°C] | Tm (sodium 1.02 M, strand 2 µM) [°C] | other results
1 | GCCGAGGTCCATGTCGTACGC+GCGTACGACATGGACCTCGGC (((((((((((((((((((((+))))))))))))))))))))) | – | – | – | – | – | Tm (sodium 0.1 M, strand 4 µM): 69.5 °C
2 | AATATCTCTCATGCGCCAAGCTACA+TGTAGCTTGGCGCATGAGAGATATT (((((((((((((((((((((((((+))))))))))))))))))))))))) | 62.1 | 65.7 | 70.3 | 75.1 | 76.5 | –
3 | TATTGAGAACAAGTGTCCGATTAGCAGAAA+TTTCTGCTAATCGGACACTTGTTCTCAATA ((((((((((((((((((((((((((((((+)))))))))))))))))))))))))))))) | 61.3 | 65.4 | 69.6 | 74.8 | 76.4 | –
4 | ACTGATTAGGATCCATATGTCA+TGACATATGGATCCTAATCAGT ((((((((((((((((((((((+)))))))))))))))))))))) | – | – | – | – | – | Tm (sodium 0.12 M, strand 5 µM): 58.3 °C
5 | AGAAGGGAGAGAAAAAGAAA+TTTCTTTTTCTCTCCCTTCT ((((((((((((((((((((+)))))))))))))))))))) | – | – | – | – | – | Tm (sodium 1 M, strand 2 µM): 61.9 °C
6 | CGCGCCACGTGTGATCTACAGCCGTTCGGC+GCCGAACGGCTGTAGATCACACGTGGCGCG ((((((((((((((((((((((((((((((+)))))))))))))))))))))))))))))) | 72.7 | 76.3 | 79.5 | 83.4 | 84.5 | –
7 | AGTCTGGTCTGGATCTGAGAACTTCAGGCT+AGCCTGAAGTTCTCAGATCCAGACCAGACT ((((((((((((((((((((((((((((((+)))))))))))))))))))))))))))))) | 66.3 | 70.4 | 74.5 | 78.8 | 80.6 | –
8 | TCGGAGAAATCACTGAGCTGCCTGAGAAGA+TCTTCTCAGGCAGCTCAGTGATTTCTCCGA ((((((((((((((((((((((((((((((+)))))))))))))))))))))))))))))) | 66.3 | 70.4 | 74.1 | 79 | 80.9 | –
9 | GCCAACTCCGTCGCCGTTCGTGCGC+GCGCACGAACGGCGACGGAGTTGGC (((((((((((((((((((((((((+))))))))))))))))))))))))) | 73.5 | 76.5 | 80.6 | 83.2 | 84.6 | –
10 | CGCCGCTGCCGACTGGAGGAGCGCGGGACG+CGTCCCGCGCTCCTCCAGTCGGCAGCGGCG ((((((((((((((((((((((((((((((+)))))))))))))))))))))))))))))) | 77.8 | 81.6 | 84.6 | 87.7 | 88.6 | –
11 | ATAAAAATGAATTCATTTTTAT+ATAAAAATGAATTCATTTTTAT ((((((((((((((((((((((+)))))))))))))))))))))) | – | – | – | – | – | Tm (sodium 0.12 M, strand 7 µM): 52.8 °C
12 | CGCAAAAAAAAAACGC+GCGTTTTTTTTTTGCG ((((((((((((((((+)))))))))))))))) | – | – | – | – | – | Tm (sodium 0.1 M, strand 4 µM): 54.1 °C
13 | ATTGATATCCTTTTCTATTCATCTTTCATT+AATGAAAGATGAATAGAAAAGGATATCAAT ((((((((((((((((((((((((((((((+)))))))))))))))))))))))))))))) | 53.5 | 58.3 | 62.3 | 68.6 | 70.4 | –
14 | ATATATAGCTATATAT+ATATATAGCTATATAT ((((((((((((((((+)))))))))))))))) | – | – | – | – | – | Tm (sodium 0.12 M, strand 5 µM): 39.1 °C
15 | ATATATATAGCTTTTTTTTT+AAAAAAAAAGCTATATATAT ((((((((((((((((((((+)))))))))))))))))))) | – | – | – | – | – | Tm (sodium 0.12 M, strand 6 µM): 44.3 °C
16 | AACGTGAATTCTGGCA+TGCCAGAATTCACGTT ((((((((((((((((+)))))))))))))))) | – | – | – | – | – | Tm (sodium 0.12 M, strand 7.4 µM): 58.3 °C
17 | AAAAAAAGCTTTTTTT+AAAAAAAGCTTTTTTT ((((((((((((((((+)))))))))))))))) | – | – | – | – | – | Tm (sodium 0.12 M, strand 5 µM): 44 °C
18 | GTTATTCCGCAGTCCGATGGCAGCAGGCTC+GAGCCTGCTGCCATCGGACTGCGGAATAAC ((((((((((((((((((((((((((((((+)))))))))))))))))))))))))))))) | 70.6 | 74.9 | 78.1 | 82.4 | 84.1 | –
19 | CGCGCGCGACTGACTG+CAGTCAGTCGCGCGCG ((((((((((((((((+)))))))))))))))) | – | – | – | – | – | Tm (sodium 0.12 M, strand 44 µM): 69.4 °C
20 | ACAGCGAATGGACCTACGTGGCCTT+AAGGCCACGTAGGTCCATTCGCTGT (((((((((((((((((((((((((+))))))))))))))))))))))))) | 68.1 | 72.1 | 76 | 79.4 | 81 | –
21 | GATATAGCAAAATTCTAAGTTAATA+TATTAACTTAGAATTTTGCTATATC (((((((((((((((((((((((((+))))))))))))))))))))))))) | 49.1 | 53.5 | 57.7 | 63.3 | 66.1 | –
22 | GTAGAATTCTTTTCCTTCTAGATCG+CGATCTAGAAGGAAAAGAATTCTAC (((((((((((((((((((((((((+))))))))))))))))))))))))) | – | – | – | – | – | Tm (sodium 0.1 M, strand 1 µM): 62 °C
23 | CAGCAGCAGCAGCAGCAGCAGCAGCAGCAG+CTGCTGCTGCTGCTGCTGCTGCTGCTGCTG ((((((((((((((((((((((((((((((+)))))))))))))))))))))))))))))) | – | – | – | – | – | Tm (sodium 0.15 M, strand 0.0001 M): 83 °C
24 | CCACTATACCATCTATGTAC+GTACATAGATGGTATAGTGG ((((((((((((((((((((+)))))))))))))))))))) | 51.1 | 54.6 | 58.4 | 62.2 | 64.4 | –
25 | GTATAACCGGTTATAC+GTATAACCGGTTATAC ((((((((((((((((+)))))))))))))))) | – | – | – | – | – | Tm (sodium 1 M, strand 0.0001 M): 65.9 °C
26 | CAACTTGATATTAATA+TATTAATATCAAGTTG ((((((((((((((((+)))))))))))))))) | – | – | – | – | – | Tm (sodium 1 M, strand 18 µM): 52 °C
27 | CTCAACTTGCGGTAAATAAATCGCTTAATC+GATTAAGCGATTTATTTACCGCAAGTTGAG ((((((((((((((((((((((((((((((+)))))))))))))))))))))))))))))) | 60.9 | 64.8 | 68.7 | 74.4 | 75.5 | –
28 | AACGCGCGTGAATTCTGGCCGCAA+TTGCGGCCAGAATTCACGCGCGTT ((((((((((((((((((((((((+)))))))))))))))))))))))) | – | – | – | – | – | Tm (sodium 0.12 M, strand 6 µM): 75.8 °C
29 | CGGGACCAACTAAAGGAAAT+ATTTCCTTTAGTTGGTCCCG ((((((((((((((((((((+)))))))))))))))))))) | 53.7 | 57.7 | 61.7 | 66.7 | 68.5 | –
30 | AAGGCGAGTCAGGCTCAGTG+CACTGAGCCTGACTCGCCTT ((((((((((((((((((((+)))))))))))))))))))) | 64.5 | 67.7 | 71.4 | 75.1 | 76.3 | –
